Measurements from patent publication US20180148514A1, “MULTIVALENT MEDITOPES, MEDITOPE-BINDING ANTIBODIES AND USES THEREOF” (City of Hope, priority 2014, published 2018).

What was measured:
[1] = system: meditope enabled antibody trastuzumab; assay: SPR analysis of BVM and TVM gel filtration fractions; format: binding; settings: BVM fractions 26-29, TVM fractions 21-23
[2] = system: Raji-B cells; assay: pHrodo-labeled CD-19 antibody internalization, fluorescence microscopy, Raji-B; format: cell-based, human; settings: 100 nM antibody with or without 100 nM meditope-Fc, 30 minutes, 37° C., n=8
Procedure: Raji-B cells, a human B lymphocyte cell line derived from human lymphoblast, CCL-86™, ATCC®, were stained for fluorescence microscopy to determine receptor-mediated endocytosis rates of the pHrodo™-labeled CD-19 antibody. Cells were stained in Nunc® Lab-Tek® II chambered 8 well coverglass polystyrene chambers (0.7 cm^2/well). Cells were stained using either 100 nM antibody and 100 nM of Alexa Fluor 488®-labeled meditope-Fc (SEQ ID NO: 236) or 100 nM antibody alone (control) for 30 minutes at 37° C. in serum-free media. Nuclei of Raji-B cells were also stained with Hoechst 33342 (2 μg/mL final concentration for 20 minutes).
Cells were imaged with a confocal microscope using appropriate wavelength settings for pHrodo™-labeled antibodies, Alexa Fluor 488-labeled meditope-Fc, and Hoechst 33342-labeled nuclei. Z sectioning permitted visualization of the internalized materials and all quantitative measurements were taken at the same defined section height. Cells were visualized and quantified at each time point for each visualization event. Total fluorescence of each stain inside and outside of imaged cells were calculated using ImageJ analysis at a single time point of 30 minutes. Total staining for MOR-208 alone was calculated as 1797.71±194.97 (n=8). Total staining for MOR-208 bound to meditope-Fc was calculated as 4430.43±632.59 (n=8).

[3] = system: Meditope-enabled trastuzumab version 2; assay: SPR multivalent meditope valency test at varying ligand densities; format: binding; settings: for Ka / t1/2: 37° C., 1:1 fit
Procedure: The low density channel was approximately 150 RU (FIG. 19A), the medium density channel was approximately 750 RU (FIG. 19B), and the high density channel was approximately 1500 RU (FIG. 19C).
Trivalent meditope (TVM) (SEQ ID NO: 231) concentrations were prepared as a 5-fold dilution series from 1 μM to 2.6 pM in HBS-EP+. Samples were flowed over all four channels at 30 μL/min at 37° C. Sensograms were double referenced to the blank immobilization on channel 1 and with two “0” concentration buffer blanks.
A control meditope peptide was run at the beginning and end of the experiment to assess for loss of surface activity during the experiment. Less than 5% decrease in signal was observed on the most dense ligand surface after the experiment was completed. Regeneration buffer for the experiment was a pulse of 10 mM glycine pH 3.0 with variable time from 2-10 seconds followed by a 30 sec pulse of running buffer HBS-EP+.
Data fits were performed using BiaEvaluation software with the 1:1 fit model. Data fit quality to the 1:1 binding model decreased as the surface density of ligand increased and the off rate was not well determined due to lack of curvature.

[4] = system: SKBR3 cells; assay: Microscopy of SKBR3 cells with labeled TVM and trastuzumab variants; format: cell-based
Procedure: TVM was labeled with NHS-Alexa Fluor 647 following the manufacturer's protocol (Thermo Fisher Scientific, Waltham Mass.) 0.1 M sodium bicarbonate buffer pH 8.0 at room temperature for 1 hour).

[5] = most densely immobilized surface

| Molecule | binding (SPR) [1] | total staining (total fluorescence, ImageJ) [2] | Ka ([3]; density 150 RU) | t1/2 ([3]; density 150 RU) | Ka ([3]; density 750 RU) | t1/2 ([3]; density 750 RU) | Ka ([3]; density 1500 RU) | t1/2 ([3]; density 1500 RU) | half-life [3, 5] | improvement of half-life over monovalent meditope [3, 5] | cell morphology and attachment ([4]; labeled TVM with meditope enabled antibody trastuzumab) | cell morphology and attachment ([4]; labeled TVM with parental trastuzumab) |
| --- | --- | --- | --- | --- | --- | --- | --- | --- | --- | --- | --- | --- |
| BVM: bivalent meditope, peptide sequence of SEQ ID NO: 229 (protein, (1)..(230) His6-SMT3-Bivalent meditope (BVM) sequence (Amino Acid)) MGSSHHHHHHSSGLVPRGSHMGGGSWSHPQFEKGGGSGGGMSDSEVNQEAKPEVKPEVKPETHINLKVSDGSSEIFFKIKKTTPLRRLMEAFAKRQGKEMDSLRFLYDGIRIQADQTPEDLDMEDNDIIEAHREQIGGGGSAAPSSAPSPSAPCQFDLSTRRLSCGGASPAASPSAPSSPAPKAPSAAPSSAPSPSAPGGCQFDLSTRRLSCGGASPAASPSAPSSPAPK | bound meditope enabled antibody trastuzumab antibodies | – | – | – | – | – | – | – | – | – | – | – |
| MOR-208: Meditope-enabled MOR208 (CD-19 antibody), light chain SEQ ID NO: 226, heavy chain SEQ ID NO: 227, pHrodo labeled (protein, pHrodo label; (1)..(219) MOR-208 Light chain; (1)..(451) MOR-208 Heavy chain) light: DIVMTQSPAILSLSPGERATLSCRSSKSLQNVNGNTYLYWFQQKTNGSPRLLIYRMSNLNSGVPDRFSGSGSGTEFTLTISSLEPEDEADYYCIQHLEYPITFGAGTKLEIKRTVAAPSVFIFPPSDEQLKSGTASVVCLLNNFYPREAKVQWKVDNALQSGNSQESVTEQDSKDSTYSLSSTLTLSKADYEKHKVYACEVTHQGLSSPVTKSFNRGEC heavy: EVQLVESGGGLVKPGGSLKLSCAASGYTFTSYVMHWVRQSPGKGLEWIGYINPYNDGTKYNEKFQGRVTISSDKSISTAYMELSSLRSEDTAIYYCARGTYYYGTRVFDYWGQGTLVTVSSASTKGPSVFPLAPSSKSTSGGTAALGCLVKDYFPEPVTVSWNSGALTSGVHTFPAVLQSSGLYSLSSVVTVPSSSLGTQTYICNVNHKPSNTKVDKKVEPKSCDKTHTCPPCPAPELLGGPDVFLFPPKPKDTLMISRTPEVTCVVVDVSHEDPEVQFNWYVDGVEVHNAKTKPREEQFNSTFRVVSVLTVVHQDWLNGKEYKCKVSNKALPAPEEKTISKTKGQPREPQVYTLPPSREEMTKNQVSLTCLVKGFYPSDIAVEWESNGQPENNYKTTPPMLDSDGSFFLYSKLTVDKSRWQQGNVFSCSVMHEALHNHYTQKSLSLSPGK | – | 1797.71±194.97 | – | – | – | – | – | – | – | – | – | – |
| TVM: trivalent meditope, peptide sequence of SEQ ID NO: 231, expressed in E. coli (protein, (1)..(258) His6-SMT-Trivalent meditope (TVM) sequence (Amino Acid)) MGGGSWSHPQFEKGGGSGGGMSDSEVNQEAKPEVKPEVKPETHINLKVSDGSSEIFFKIKKTTPLRRLMEAFAKRQGKEMDSLRFLYDGIRIQADQTPEDLDMEDNDIIEAHREQIGGGGSAAPSSAPSPSAPCQFDLSTRRLSCGGASPAASPSAPSSPAPKAPSAAPSSAPSPSAPGGCQFDLSTRRLSCGGASPAASPSAPSSPAPKAPSAAPSSAPSPSAPGGCQFDLSTRRLSCGGSPSAPSSPSSPKLPETG | bound meditope enabled antibody trastuzumab antibodies | – | 8700 M⁻¹ s⁻¹ | 0.4 h | 10000 M⁻¹ s⁻¹ | 1.3 h | 9800 M⁻¹ s⁻¹ | 2.4 h | 2.42 h | > 30 fold | rounded morphology and frequently detached from the surface of the coverslides | not observed |
